The target of experiment [1] is Alexa Fluor 488-labeled OmpT (E. coli) (UniProt P09169). Briefly: MST.
The next experiment addresses T1, SurA WT (E. coli, UniProt P0ABZ6 21-428).
T1 sequence (looked up): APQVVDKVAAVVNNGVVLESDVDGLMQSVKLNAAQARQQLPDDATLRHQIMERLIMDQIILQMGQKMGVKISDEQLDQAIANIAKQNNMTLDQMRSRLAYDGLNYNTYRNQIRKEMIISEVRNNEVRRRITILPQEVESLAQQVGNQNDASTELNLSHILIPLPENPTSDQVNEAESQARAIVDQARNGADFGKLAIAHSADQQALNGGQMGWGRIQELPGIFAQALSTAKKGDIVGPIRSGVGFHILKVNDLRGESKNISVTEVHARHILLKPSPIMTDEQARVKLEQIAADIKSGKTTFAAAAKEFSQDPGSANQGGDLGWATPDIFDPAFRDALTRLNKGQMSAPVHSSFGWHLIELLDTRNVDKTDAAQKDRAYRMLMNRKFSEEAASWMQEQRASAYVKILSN
Briefly: MST.

As for “SurA WT (from UniProt P0ABZ6 21-428) (natural protein)”, in experiment [1], the Kd was found to be 9.3 µM.

B1: Alexa Fluor 488-labeled tOmpA (domain or fragment)
chain: APKDNTWYTGAKLGWSQYHDTGFINNNGPTHENQLGAGAFGGYQVNPYVGFEMGYDWLGRMPYKGSVENGAYKAQGVQLTAKLGYPITDDLDIYTRLGGMVWRADTKSNVYGKNHDTGVSPVFAGGVEYAITPEIATRLEYQWTNNIGDAHTIGTRPDNGMLSLGVSYRFG
modifications: Alexa Fluor 488 C5 maleimide on the N-terminal Cys
The molecule B1 gave a dissociation constant (Kd) with SurA WT of 1.8 ± 0.1 µM.
